Measured values published in doi:10.1101/2020.04.10.035014 (bioRxiv, 2020).

B1: C-terminus of INTS3 (INTS3c; residues 560-905 and 915-995, co-expressed) (domain or fragment, human)
chain 1: TVVEEPVDITPYLDQLDESLRDKVLQLQKGSDTEAQCEVMQEIVDQVLEEDFDSEQLSVLASCLQELFKAHFRGEVLPEEITEESLEESVGKPLYLIFRNLCQMQEDNSSFSLLLDLLSELYQKQPKIGYHLLYYLRASKAAAGKMNLYESFAQATQLGDLHTCLMMDMKACQEDDVRLLCHLTPSIYTEFPDETLRSGELLNMIVAVIDSAQLQELVCHVMMGNLVMFRKDSVLNILIQSLDWETFEQYCAWQLFLAHNIPLETIIPILQHLKYKEHPEALSCLLLQLRREKPSEEMVKMVLSRPCHPDDQFTTSILRHWCMKHDELLAEHIKSLLIKNNSLPRK
chain 2: KLAQLTLEQILEHLDNLRLNLTNTKQNFFSQTPILQALQHVQASCDEAHKMKFSDLFSLAEEYEDSSTKPPKSRRKAALSS
B2: INTS3(1-995) (domain or fragment, human, UniProt Q68E01 1-995, looked up)
chain: MELQKGKGAAAAAAASGAAGGGGGGAGAGAPGGGRLLLSTSLDAKDELEERLERCMSIVTSMTAGVSEREANDALNAYVCKGLPQHEEICLGLFTLILTEPAQAQKCYRDLALVSRDGMNIVLNKINQILMEKYLKLQDTCRTQLVWLVRELVKSGVLGADGVCMTFMKQIAGGGDVTAKNIWLAESVLDILTEQREWVLKSSILIAMAVYTYLRLIVDHHGTAQLQALRQKEVDFCISLLRERFMECLMIGRDLVRLLQNVARIPEFELLWKDIIHNPQALSPQFTGILQLLQSRTSRKFLACRLTPDMETKLLFMTSRVRFGQQKRYQDWFQRQYLSTPDSQSLRCDLIRYICGVVHPSNEVLSSDILPRWAIIGWLLTTCTSNVAASNAKLALFYDWLFFSPDKDSIMNIEPAILVMHHSMKPHPAITATLLDFMCRIIPNFYPPLEGHVRQGVFSSLNHIVEKRVLAHLAPLFDNPKLDKELRAMLREKFPEFCSSPSPPVEVKIEEPVSMEMDNHMSDKDESCYDNAEAAFSDDEEDLNSKGKKREFRFHPIKETVVEEPVDITPYLDQLDESLRDKVLQLQKGSDTEAQCEVMQEIVDQVLEEDFDSEQLSVLASCLQELFKAHFRGEVLPEEITEESLEESVGKPLYLIFRNLCQMQEDNSSFSLLLDLLSELYQKQPKIGYHLLYYLRASKAAAGKMNLYESFAQATQLGDLHTCLMMDMKACQEDDVRLLCHLTPSIYTEFPDETLRSGELLNMIVAVIDSAQLQELVCHVMMGNLVMFRKDSVLNILIQSLDWETFEQYCAWQLFLAHNIPLETIIPILQHLKYKEHPEALSCLLLQLRREKPSEEMVKMVLSRPCHPDDQFTTSILRHWCMKHDELLAEHIKSLLIKNNSLPRKRQSLRSSSSKLAQLTLEQILEHLDNLRLNLTNTKQNFFSQTPILQALQHVQASCDEAHKMKFSDLFSLAEEYEDSSTKPPKSRRKAALSS
B3: C-terminus of INTS6 (INTS6c; residues 800-887) (domain or fragment, human, UniProt Q9UL03 800-887, looked up)
chain: MHCRSHEEVNTELKAQIMKEIRKPGRKYERIFTLLKHVQGSLQTRLIFLQNVIKEASRFKKRMLIEQLENFLDEIHRRANQINHINSN

Tests used:
crystal structure = target: the molecule itself; test: crystal structure
SEC = target: the molecule itself; test: SEC
[1] = target: B1; test: crystal structure

B1
stoichiometry N (crystal structure): 2

B2
stoichiometry N (SEC): 2

B3
binding result [1]: binds
